Reference: patent publication US20250340636A1, “ANTIBODIES TARGETING L1CAM AND USES THEREOF” (MEMORIAL SLOAN-KETTERING CANCER CENTER, priority 2023, published 2025)
Where a chain is given by its changes, count along the chain named.

Tests used:
[1] = biological target: T1, HEK293FT cells transiently transfected with mouse L1CAM (Mus musculus, UniProt P11627); test: Flow cytometry binding to HEK293FT cells transiently transfected with mouse L1CAM
T1 construct: expressed in transfected cells; host or cells: HEK293FT (transient)
T1 sequence (P11627 20-1260): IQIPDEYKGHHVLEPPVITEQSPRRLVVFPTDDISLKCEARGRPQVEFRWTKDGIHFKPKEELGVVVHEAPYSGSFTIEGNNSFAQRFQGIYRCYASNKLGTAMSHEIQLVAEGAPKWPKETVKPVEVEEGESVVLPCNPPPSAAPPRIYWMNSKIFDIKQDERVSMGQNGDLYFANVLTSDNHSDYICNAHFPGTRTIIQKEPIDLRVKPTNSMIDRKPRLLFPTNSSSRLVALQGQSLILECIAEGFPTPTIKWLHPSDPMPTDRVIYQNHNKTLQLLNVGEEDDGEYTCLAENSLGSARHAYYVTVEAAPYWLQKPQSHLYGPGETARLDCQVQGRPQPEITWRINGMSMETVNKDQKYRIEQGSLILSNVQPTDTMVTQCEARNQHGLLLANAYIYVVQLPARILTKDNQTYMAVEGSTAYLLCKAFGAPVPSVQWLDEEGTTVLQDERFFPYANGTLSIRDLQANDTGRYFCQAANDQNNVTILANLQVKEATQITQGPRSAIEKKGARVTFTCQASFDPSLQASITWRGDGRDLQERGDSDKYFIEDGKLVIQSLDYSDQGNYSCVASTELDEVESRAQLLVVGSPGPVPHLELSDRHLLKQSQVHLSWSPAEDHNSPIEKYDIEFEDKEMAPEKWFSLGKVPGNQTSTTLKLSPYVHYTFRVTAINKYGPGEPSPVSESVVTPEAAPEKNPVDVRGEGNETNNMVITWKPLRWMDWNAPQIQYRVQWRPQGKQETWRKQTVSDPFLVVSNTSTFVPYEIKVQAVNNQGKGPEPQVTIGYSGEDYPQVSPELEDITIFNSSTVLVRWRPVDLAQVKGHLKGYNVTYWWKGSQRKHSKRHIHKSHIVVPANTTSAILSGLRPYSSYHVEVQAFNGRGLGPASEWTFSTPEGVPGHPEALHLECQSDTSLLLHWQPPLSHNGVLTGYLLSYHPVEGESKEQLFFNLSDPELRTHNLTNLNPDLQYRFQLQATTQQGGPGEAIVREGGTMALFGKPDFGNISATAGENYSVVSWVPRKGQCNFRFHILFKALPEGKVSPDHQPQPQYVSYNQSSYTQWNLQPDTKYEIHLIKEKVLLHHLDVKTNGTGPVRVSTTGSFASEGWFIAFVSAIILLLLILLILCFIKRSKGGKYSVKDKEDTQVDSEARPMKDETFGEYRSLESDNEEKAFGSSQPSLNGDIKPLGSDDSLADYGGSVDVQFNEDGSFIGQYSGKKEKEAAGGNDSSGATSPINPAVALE
Experimental: Hybridoma Screening. Binding to human L1CAM protein was tested by ELISA and to a HEK293T cell line overexpressing human L1CAM by flow cytometry. […] Cross-reactivity to cynomolgus L1CAM was not assessed at this point, as it is >99% homologous to human L1CAM. […] The antibodies were tested for binding to MDA-MB-231 cells, a breast cancer cell line that endogenously expresses L1CAM, followed by analysis of their internalization efficacy in MDA-MB-231 cells.
Binding Analysis. […] Dissociation constants (KD) for binding to soluble human and cynomolgus monkey L1CAM-His were determined using biolayer interferometry (BLI). In addition, EC50 values for binding to cell-bound L1CAM were established by flow cytometry using HEK293T/FT cells overexpressing human or mouse L1CAM, MCF-7 cells, and MDA-MB-231 cells. In addition, the epitope regions of the mAbs were determined by BLI interaction analysis with L1CAM subdomains (Ig and FN) expressed individually, and by a BLI competition experiment to identify epitope bins.
The binding curves for each antibody and cell line normalized to secondary antibody only staining (MFI ratio) are shown in FIGS. 14A-14C. EC50 values were determined by non-linear regression (Table 70). […] It is possible that differences in the conformation and oligomerization of L1CAM, depending on the surface expression level, contributed to the binding pattern. […]

[2] = biological target: T2, recombinant L1CAM-Fc fusion protein (Homo sapiens, UniProt P32004); test: BLI binding of 76H12 Fabs to recombinant L1CAM-Fc; conditions: L1CAM-Fc on AHC biosensors, Fab 3-200 nM, 1:1 model
T2 construct: purchased R&D Systems; host or cells: mammalian cells
T2 sequence (P32004 20-1120): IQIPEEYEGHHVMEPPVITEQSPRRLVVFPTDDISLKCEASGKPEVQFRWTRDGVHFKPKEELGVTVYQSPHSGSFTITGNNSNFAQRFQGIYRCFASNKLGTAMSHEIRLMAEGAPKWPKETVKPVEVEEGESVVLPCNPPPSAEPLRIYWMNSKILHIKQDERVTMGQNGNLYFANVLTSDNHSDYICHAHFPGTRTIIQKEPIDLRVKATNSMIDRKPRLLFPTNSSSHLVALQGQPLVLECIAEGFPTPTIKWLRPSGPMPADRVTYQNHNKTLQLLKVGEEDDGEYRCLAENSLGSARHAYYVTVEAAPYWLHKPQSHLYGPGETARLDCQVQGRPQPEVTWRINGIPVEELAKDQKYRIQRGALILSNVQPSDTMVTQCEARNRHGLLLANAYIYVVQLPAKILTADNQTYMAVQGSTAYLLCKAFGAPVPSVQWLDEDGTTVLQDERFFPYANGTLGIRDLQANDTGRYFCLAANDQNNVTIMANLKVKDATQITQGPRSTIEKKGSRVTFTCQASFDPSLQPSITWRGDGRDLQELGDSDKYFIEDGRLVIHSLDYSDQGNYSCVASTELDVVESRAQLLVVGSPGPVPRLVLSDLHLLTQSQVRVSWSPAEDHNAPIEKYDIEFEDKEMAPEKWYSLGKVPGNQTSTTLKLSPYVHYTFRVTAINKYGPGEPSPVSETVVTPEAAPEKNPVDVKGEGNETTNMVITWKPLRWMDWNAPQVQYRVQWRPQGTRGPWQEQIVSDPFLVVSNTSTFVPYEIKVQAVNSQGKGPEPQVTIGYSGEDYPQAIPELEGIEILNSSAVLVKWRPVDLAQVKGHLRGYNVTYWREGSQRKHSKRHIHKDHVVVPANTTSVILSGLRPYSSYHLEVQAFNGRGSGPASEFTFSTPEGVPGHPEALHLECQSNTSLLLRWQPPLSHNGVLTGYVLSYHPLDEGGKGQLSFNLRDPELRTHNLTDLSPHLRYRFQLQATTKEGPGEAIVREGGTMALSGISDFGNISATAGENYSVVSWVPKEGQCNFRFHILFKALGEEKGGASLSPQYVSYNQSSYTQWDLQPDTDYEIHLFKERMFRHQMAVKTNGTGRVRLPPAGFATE
From the text: A total of 11 humanized 76H12 Fab variants (Fabs 2-12) were generated in addition to a chimeric 76H12 Fab (Fab 1) containing the parental murine VH and VL sequences. The chimeric Fab served as the benchmark for comparative assessment of humanized Fab variants. Humanized Fabs were first assessed by flow cytometry for binding to 293T cells engineered to overexpress L1CAM (FIG. 32A). All humanized variants bound to the L1CAM overexpressing cells, with most binding comparably to the chimeric 76H12 Fab. […] Here, recombinant L1CAM-Fc fusion protein was immobilized onto anti-Human IgG Fc Capture (AHC) biosensors and binding of Fabs was measured kinetically over a 3-200 nM concentration range. Kinetic data were fitted to a 1:1 binding model to compute association (kon) and dissociation (koff) rate constants, in addition to equilibrium dissociation constants (KD) as shown in Table 87. […] From these, Fab 3 represents the preferred humanized variant given higher identity to human germline IGHV1-46 and IGKV1-39 sequences resulting from fewer human-to-murine framework back mutations.

B1: 14A10: anti-L1CAM mAb from AlivaMab mice (human variable regions, mouse IgG1 Fc); VH SEQ ID NO: 87, VL SEQ ID NO: 88 (antibody, V domains shown)
VH: EVQMVESGGGLVQPGGSLRLSCAAPGFIFSSYNMNWVRQAPGKGLEWVSYISSSSSTTYYADSVKGRFTISRDNAKNSLYLQMNSLRDEDTAVYYCASLYSGYDYYYYYGMDVWGQGTTVTVSS
VL: DIVMTQTPLSSPVSLGQPASISCRSSQSLVHSDGNTYLSWLQQRPGQPPRVLIYKISKRFSGVPDRFSGSGAGTDFTLKISRVEAEDVGVYYCMQATQFPFTFGPGTKVDIK
With B1 the “cross-reactivity with mouse L1CAM” value [1] was “cross-reacted with mouse L1CAM”.

B2: Fab 3: humanized 76H12 Fab variant, preferred; design in Table 86 (antibody, V domains shown)
VH: QVQLVQSGAEVKKPGASVKVSCKASGYTFTSYWMHWVRQAPGQGLEWIGNVYPGSGSTKYAQKFQGRATLTVDTSTSTVYMELSSLRSEDTAVYYCARPGNYEGFAYWGQGTLVTVSS
VL: DIQLTQSPSSLSASVGDRVTITCRASESVDSYGSSFMHWYQQKPGKPPKLLIYLASNLESGVPSRFSGSGSGTDFTLTISSLQPEDFATYYCQQNNEDPWTFGQGTKLEIK
For B2, the “affinity for L1CAM relative to the chimeric Fab (Fab 1)” value [2] was “equivalent or better affinity than the chimeric Fab”.

B3: Fab 5: humanized 76H12 Fab variant; design in Table 86 (antibody, V domains shown)
VH: B2 VH
VL: B2 VL with D1N
In the case of B3, the “affinity for L1CAM relative to the chimeric Fab (Fab 1)” value [2] is reported as “equivalent or better affinity than the chimeric Fab”.

B4: Fab 4: humanized 76H12 Fab variant; design in Table 86 (antibody, V domains shown)
VH: B2 VH
VL: B2 VL with G72R
For B4, the “affinity for L1CAM relative to the chimeric Fab (Fab 1)” value [2] was “equivalent or better affinity than the chimeric Fab”.
